These results are taken from article PMC4357719, “Roles of Rad51 paralogs for promoting homologous recombination in Leishmania infantum”.

Data set [1] has as its target T1, LiRad51-3 (in 3-4-6 complex);LiRad51-4 (in 3-4-6 complex);LiRad51-6 (in 3-4-6 complex) (Leishmania infantum;Leishmania …, UniProt E9AHR7;A4HUT5;A4I499 1-687;1-518;1-649, ||). Put plainly: competition EMSA; 0-40 nM complex; mixture; 25 mM MOPS pH 7.0, 0.2% Tween-20, 1 mM CaCl2, 2 mM DTT; 25 nM 32P-DNA; 37 C 10 min, then 0.2% glutaraldehyde 15 min; 8% TBE acrylamide gel. To be noted: protein: recombinant;recombinant;recombinant; copies: 1;1;1; label: 32P on strand 1; fork 1:2. On the technique in general: Mobility shift assays separate free from complexed probe on a gel.

Data set [2] deals with T1, LiRad51-3 (in 3-4-6 complex);LiRad51-4 …. Put plainly: competition EMSA; 0-40 nM complex; preferred substrate in mixture; 25 mM MOPS pH 7.0, 0.2% Tween-20, 1 mM CaCl2, 2 mM DTT; 25 nM 32P-DNA; 37 C 10 min, then 0.2% glutaraldehyde 15 min; 8% TBE acrylamide gel. To be noted: protein: recombinant;recombinant;recombinant; copies: 1;1;1; label: 32P on strand 3 (JYM1745); D-loop: 1:2 with unpaired bubble, 3 paired to 2 in the bubble.

B1: splayed arm (JYM925/JYM926) (structured_DNA)
DNA 1: GGGTGAACCTGCAGGTGGGCAAAGATGTCCTAGCAATGTAATCGTCAAGCTTTATGCCGT
DNA 2: ACGCTGCCGAATTCTACCAGTGCCAGCGACGGACATCTTTGCCCACCTGCAGGTTCACCC
In the case of B1, in data set [1], the binding result is on record as “binds”.

B2: D-loop (JYM1395/JYM1396/JYM1745) (structured_DNA)
DNA 1: GCCAGGGACGGGGTGAACCTGCAGGTGGGCGGCTGCTCATCGTAGGTTAGTATCGACCTATTGGTAGAATTCGGCAGCGTCATGCGACGGC
DNA 2: GCCGTCGCATGACGCTGCCGAATTCTACCACGCTACTAGGGTGCCTTGCTAGGACATCTTTGCCCACCTGCAGGTTCACCCCGTCCCTGGC
DNA 3: AAGATGTCCTAGCAAGGCACCCTAGTAGC
In the case of B2, the binding result in data set [2] was “binds”.
